Biological target: T1, PUF4 RNA-binding domain (Saccharomyces cerevisiae, UniProt P25339 537-888)
T1 sequence: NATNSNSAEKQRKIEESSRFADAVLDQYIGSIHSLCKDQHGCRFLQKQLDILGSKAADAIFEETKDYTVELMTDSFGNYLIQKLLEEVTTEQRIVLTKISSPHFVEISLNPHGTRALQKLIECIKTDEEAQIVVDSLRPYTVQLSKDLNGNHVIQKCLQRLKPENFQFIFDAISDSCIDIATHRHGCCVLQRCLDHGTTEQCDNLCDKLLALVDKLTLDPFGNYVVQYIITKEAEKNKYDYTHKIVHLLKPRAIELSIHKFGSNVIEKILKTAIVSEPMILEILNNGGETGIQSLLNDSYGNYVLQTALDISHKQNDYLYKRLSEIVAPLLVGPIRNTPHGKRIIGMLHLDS
Assay: Mg; RNA-MaP; 20 mM Na-HEPES pH 7.4, 30 mM KOAc, 0.75 mM MgCl2, 0.1% Tween-20, 5% glycerol, 0.1 mg/mL BSA, 2 mM DTT; 25 C; 0.0125-409.6 nM protein
Details: tags: N-His6-TEV cleaved; C-SNAP kept, Cy3B-labelled; label: tethered on chip by stalled RNA polymerase

ACAAACUAUAUAUUAACAAAC (ssRNA) [Ia_S3_P4E.1_K4.1_C4.1_H4.1_[G2A]_A4.1_F4.1_T4.1] showed a Kd of 33.9 nM.

With ACAAACAGUAUAUAACAAAC (ssRNA) [Ia_S3_P3E.1_K3.1_C3.1_H3.1_[T1A]_A3.1_F3.1_T3.1] the Kd was 2000 nM.

B1: Ib_S4_P3E.1_K3.1_C3.1_H3.1_[T1A]_A3.1_F3.1_[T7C]_T3.1 (ssRNA)
RNA: UUUGACAACUGAUCGUUCUUUCUAGUAUACAUUCUUUCUCGAUCAGUUGUCUUU
B1 showed a Kd of over 2300 nM.

B2: Ib_S4_P3E.1_K3.1_C3.1_H3.1_[G2C]_A3.1_F3.1_[T7C]_T3.1 (ssRNA)
RNA: UUUGACAACUGAUCGUUCUUUCUUCUAUACAUUCUUUCUCGAUCAGUUGUCUUU
B2 was tested, and the Kd was 610 nM.

B3: Ib_S4_P3E.1_K3.1_C3.1_H3.1_[T1C]_A3.1_F3.1_[A8T]_T3.1 (ssRNA)
RNA: UUUGACAACUGAUCGUUCUUUCUCGUAUAUUUUCUUUCUCGAUCAGUUGUCUUU
In the case of B3, the Kd is reported as 645 nM.

B4: Ib_S4_P3E.1_K3.1_C3.1_H3.1_[A4C]_A3.1_F3.1_[A8T]_T3.1 (ssRNA)
RNA: UUUGACAACUGAUCGUUCUUUCUUGUCUAUUUUCUUUCUCGAUCAGUUGUCUUU
B4 was tested, and the Kd was 289 nM.

B5: Ib_S4_P3E.1_K3.1_C3.1_H3.1_[G2C]_A3.1_F3.1_[A8T]_T3.1 (ssRNA)
RNA: UUUGACAACUGAUCGUUCUUUCUUCUAUAUUUUCUUUCUCGAUCAGUUGUCUUU
B5 gave a Kd of 1640 nM.

B6: Ib_S4_P3E.1_K3.1_C3.1_H3.1_[G2C]_A3.1_F3.1_[T7A]_T3.1 (ssRNA)
RNA: UUUGACAACUGAUCGUUCUUUCUUCUAUAAAUUCUUUCUCGAUCAGUUGUCUUU
B6 gave a Kd of over 2300 nM.

B7: Ib_S4_P3E.1_K3.1_C3.1_H3.1_A3.1_[T5A]_F3.1_[T7A]_T3.1 (ssRNA)
RNA: UUUGACAACUGAUCGUUCUUUCUUGUAAAAAUUCUUUCUCGAUCAGUUGUCUUU
Work on B7 yielded a Kd of 262 nM.

B8: Ib_S4_P3E.1_K3.1_C3.1_H3.1_[A4C]_A3.1_F3.1_[T7C]_T3.1 (ssRNA)
RNA: UUUGACAACUGAUCGUUCUUUCUUGUCUACAUUCUUUCUCGAUCAGUUGUCUUU
Binder B8 has a Kd of over 2300 nM.

B9: Ib_S4_P3E.1_K3.1_C3.1_H3.1_[A4G]_A3.1_F3.1_[T7A]_T3.1 (ssRNA)
RNA: UUUGACAACUGAUCGUUCUUUCUUGUGUAAAUUCUUUCUCGAUCAGUUGUCUUU
Work on B9 yielded a Kd of 35.5 nM.

B10: Ib_S4_P3E.1_K3.1_C3.1_H3.1_[G2T]_A3.1_F3.1_[A8G]_T3.1 (ssRNA)
RNA: UUUGACAACUGAUCGUUCUUUCUUUUAUAUGUUCUUUCUCGAUCAGUUGUCUUU
Work on B10 yielded a Kd of over 2300 nM.

B11: Ib_S4_P3E.1_K3.1_C3.1_H3.1_[G2C]_A3.1_F3.1_[A8C]_T3.1 (ssRNA)
RNA: UUUGACAACUGAUCGUUCUUUCUUCUAUAUCUUCUUUCUCGAUCAGUUGUCUUU
In the case of B11, the Kd is reported as over 2300 nM.

B12: Ib_S4_P3E.1_K3.1_C3.1_H3.1_[G2A]_A3.1_F3.1_[T7A]_T3.1 (ssRNA)
RNA: UUUGACAACUGAUCGUUCUUUCUUAUAUAAAUUCUUUCUCGAUCAGUUGUCUUU
B12 was tested, and the Kd was over 2300 nM.

B13: Ic_S4_P3E.1_K3.1_C3.1_H3.1_A3.1_[A6T]_F3.1_[T7A]_T3.1 (ssRNA)
RNA: UUUGACAACUGAUCGUUCUUUCUUGUAUUAAUUCUUUCUCGAUCAGUUGUCUUU
B13 showed a Kd of 82 nM.

B14: Ib_S4_P3E.1_K3.1_C3.1_H3.1_A3.1_[A6G]_F3.1_[T7C]_T3.1 (ssRNA)
RNA: UUUGACAACUGAUCGUUCUUUCUUGUAUGCAUUCUUUCUCGAUCAGUUGUCUUU
Binder B14 has a Kd of 295 nM.

B15: Ic_S4_P3E.1_K3.1_C3.1_H3.1_A3.1_[T5A]_F3.1_[T7C]_T3.1 (ssRNA)
RNA: UUUGACAACUGAUCGUUCUUUCUUGUAAACAUUCUUUCUCGAUCAGUUGUCUUU
B15 showed a Kd of 374 nM.

B16: Ib_S4_P3E.1_K3.1_C3.1_H3.1_A3.1_[A6T]_F3.1_[T7C]_T3.1 (ssRNA)
RNA: UUUGACAACUGAUCGUUCUUUCUUGUAUUCAUUCUUUCUCGAUCAGUUGUCUUU
B16 gave a Kd of 121 nM.

B17: Ib_S4_P3E.1_K3.1_C3.1_H3.1_[T1G]_A3.1_F3.1_[A8T]_T3.1 (ssRNA)
RNA: UUUGACAACUGAUCGUUCUUUCUGGUAUAUUUUCUUUCUCGAUCAGUUGUCUUU
For B17, the Kd was over 2300 nM.

B18: Ic_S4_P3E.1_K3.1_C3.1_H3.1_A3.1_[T5A]_F3.1_[A8G]_T3.1 (ssRNA)
RNA: UUUGACAACUGAUCGUUCUUUCUUGUAAAUGUUCUUUCUCGAUCAGUUGUCUUU
In the case of B18, the Kd is reported as 296 nM.

B19: Ib_S4_P3E.1_K3.1_C3.1_H3.1_[T3C]_A3.1_F3.1_[A8T]_T3.1 (ssRNA)
RNA: UUUGACAACUGAUCGUUCUUUCUUGCAUAUUUUCUUUCUCGAUCAGUUGUCUUU
For B19, the Kd was 1510 nM.

— article PMC9352680, “A comprehensive thermodynamic model for RNA binding by the Saccharomyces cerevisiae Pumilio protein PUF4”
